Measurements reported in patent US20230242676A1 (KISOJI BIOTECHNOLOGY, published 2023).
Substitutions are numbered along the chain they refer to. Numbers in names are those of the source.

T1: SEQ ID NO 101 (Homo sapiens (Human), UniProt P0DOX5 343-449 = IgG part)
T1 construct: also called Mutated CH3 domain of KB100 Chain B (mutations D399N, K439E, E357Q, T350V)
T1 constant: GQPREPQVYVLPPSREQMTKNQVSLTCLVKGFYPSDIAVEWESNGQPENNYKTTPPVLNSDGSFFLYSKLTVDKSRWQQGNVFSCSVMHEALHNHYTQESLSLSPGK

T2: SEQ ID NO 95 (Homo sapiens (Human), UniProt P0DOX5 343-449 = IgG part)
T2 construct: also called Mutated CH3 domain of KB118 Chain B (mutations D399N); K439E
T2 constant: T1 constant with V10T, L11R

B1: SEQ ID NO 100 (other)
constant: T1 constant with E16Q, Q17E, K30E, E99K
notes: also called Mutated CH3 domain of KB099 Chain A (mutations D399N, K370E, E356Q, T350V)
B2: SEQ ID NO 102 (other)
constant: T1 constant with V10T, P12R, E16Q, Q17E, K30E, E99K
notes: also called Mutated CH3 domain of KB105 Chain A (mutations D399N, K370E, E356Q, P352R)
B3: SEQ ID NO 103 (other)
constant: T1 constant with V10T, P12E, E16Q, Q17E, K30E, E99K
notes: also called Mutated CH3 domain of KB108 Chain A (mutations D399N, K370E, E356Q, P352E)

Legend:
[1] = molecular target: T1, SEQ ID NO 101; assay: co-expression of Chain A and Chain B vectors, SDS-PAGE and Western blot; heterodimer formation
[2] = molecular target: T2, SEQ ID NO 95; assay: as above

Binder	binding result [1]	binding result [2]
B1	binds	–
B2	–	binds
B3	–	binds
